The values that follow come from patent publication US10358672B2, “7-β-hydroxysteroid dehydrogenase mutants and process for the preparation of ursodeoxycholic acid” (Pharmazell GmbH, priority 2014, dated 2019).

Data set [1] has as its target 7β-HSDH obtainable from Collinsella aerofaciens DSM 3979 (Collinsella aerofaciens, UniProt A4ECA9). The settings on record: cited from earlier work.
Substrate in data set [2]: C[C@H](CCC(=O)O)[C@H]1CC[C@H]2[C@@H]3C(=O)C[C@@H]4CC(=O)CC[C@]4(C)[C@H]3CC(=O)[C@]12C
Put plainly: cells, lysate or membranes named. The settings on record: other: purified enzyme, 340 nm, 50 mM KPi pH 8.0, substrate DHCA / cofactor NADPH.

Substrate in data set [3]: NC(=O)C1=CN([C@@H]2O[C@H](COP(=O)(O)OP(=O)(O)OC[C@H]3O[C@@H](n4cnc5c(N)ncnc54)[C@H](OP(=O)(O)O)[C@@H]3O)[C@@H](O)[C@H]2O)C=CC1
Put plainly: cells, lysate or membranes named. The settings on record: other: purified enzyme, 340 nm, 50 mM KPi pH 8.0, substrate DHCA / cofactor NADPH.

Data set [4] is described as follows: Photometric activity determination of 7β-HSDH and mutants (decrease in absorbance at 340 nm, DHCA reduction with NADPH). Type of data set: biochemical. The method, then: The activity of the 7β-HSDH and of the mutants was determined using a photometric assay, where the decrease in absorbance was measured at 340 nm over a period of 30 seconds.
The expression [R64E] in the first column of the table means that the arginine (R) in position 64 of the protein sequence had been replaced by glutamic acid (E) in the mutant in question. The respective amino acid is abbreviated using the international one-letter code. Analogously, [R64D] means that an aspartic acid has been introduced at this position.

Data set [5] can be described thus: Cofactor specificity of 7β-HSDH types (compilation of improvements). Type of data set: biochemical.
Substrate in data set [6]: C[C@H](CCC(=O)O)[C@H]1CC[C@H]2[C@@H]3C(=O)C[C@@H]4CC(=O)CC[C@]4(C)[C@H]3CC(=O)[C@]12C
Put plainly: purified protein, by the assay type. The following applies: other: purified enzyme, 340 nm, 50 mM KPi pH 8.0, substrate DHCA / cofactor NADPH.

Substrate in data set [7]: NC(=O)C1=CN([C@@H]2O[C@H](COP(=O)(O)OP(=O)(O)OC[C@H]3O[C@@H](n4cnc5c(N)ncnc54)[C@H](OP(=O)(O)O)[C@@H]3O)[C@@H](O)[C@H]2O)C=CC1
Put plainly: purified protein, by the assay type. The following applies: other: purified enzyme, 340 nm, 50 mM KPi pH 8.0, substrate DHCA / cofactor NADPH.

The mark [8] stands for this setting: Table 10, dual mutant versus wild type.
The mark [9] stands for this setting: Table 4, variants modified at position 64, 10 mM DHCA, NADPH, KPi pH 8.0.
[10] abbreviates: Table 9, variants modified at position 17.

As for `C[C@H](CCC(=O)O)[C@H]1CC[C@H]2[C@@H]3[C@@H](O)C[C@@H]4C[C@H](O)CC[C@]4(C)[C@H]3CC[C@]12C` [UDCA, Ursodeoxycholic acid], in data set [1], the kcat is given as 1179.39.
Take `C[C@H](CCC(=O)O)[C@H]1CC[C@H]2[C@@H]3C(=O)C[C@@H]4C[C@H](O)CC[C@]4(C)[C@H]3CC[C@]12C` [Mutant 7-Keto-LCA, 7-keto-lithocholic acid]: in data set [1], the Vmax is listed as 30.77 U/mg Protein and the kcat is given as 950.77.
Take `NC(=O)C1=CN([C@@H]2O[C@H](COP(=O)(O)OP(=O)(O)OC[C@H]3O[C@@H](n4cnc5c(N)ncnc54)[C@H](OP(=O)(O)O)[C@@H]3O)[C@@H](O)[C@H]2O)C=CC1` [NADPH]: in data set [1], the Vmax is recorded as 33.44 U/mg Protein and the kcat is listed as 1033.44.

B1: Collinsella aerofaciens 7β-HSDH mutant [R64E], with His tag, SEQ ID NO:4 (Collinsella aerofaciens ATCC 25986; R64E) (protein)
chain: MNLREKYGEWGLILGATEGVGKAFCEKIAAGGMNVVMVGRREEKLNVLAGEIRETYGVETKVVEADFSQPGAAETVFAATEGLDMGFMSYVACLHSFGKIQDTPWEKHEAMINVNVVTFLKCFHHYMRIFAAQDRGAVINVSSMTGISSSPWNGQYGAGKAFILKMTEAVACECEGTGVDVEVITLGTTLTPSLLSNLPGGPQGEAVMKIALTPEECVDEAFEKLGKELSVIAGQRNKDSVHDWKANHTEDEYIRYMGSFYRDLEHHHHHH
What is called Km is the concentration of substrate that gives half-maximal velocity. For B1, the Km came to 81.01 ± 18.9 µM in data set [2] and 45.48 ± 3.5 µM in data set [3]. Further, the Vmax turned out to be 41.6 µmol/min/mg in data set [2] and 60.3 µmol/min/mg in data set [3].

B2: Collinsella aerofaciens 7β-HSDH mutant [G39S], with His tag, SEQ ID NO:5 (Collinsella aerofaciens ATCC 25986; G39S) (protein)
chain: MNLREKYGEWGLILGATEGVGKAFCEKIAAGGMNVVMVSRREEKLNVLAGEIRETYGVETKVVRADFSQPGAAETVFAATEGLDMGFMSYVACLHSFGKIQDTPWEKHEAMINVNVVTFLKCFHHYMRIFAAQDRGAVINVSSMTGISSSPWNGQYGAGKAFILKMTEAVACECEGTGVDVEVITLGTTLTPSLLSNLPGGPQGEAVMKIALTPEECVDEAFEKLGKELSVIAGQRNKDSVHDWKANHTEDEYIRYMGSFYRDLEHHHHHH
Take B2: in data set [2], the Km was found to be 352.4 ± 42.7 µM and the Vmax came to 52 µmol/min/mg. In addition, in data set [3], the Km was found to be 34.5 ± 6.6 µM and the Vmax was 48.8 µmol/min/mg.

B3: 7β-HSDH [G39S]: 7β-HSDH mutant which contains serine instead of glycine at position 39; His tag, SEQ ID NO:5 (protein)
chain: MNLREKYGEWGLILGATEGVGKAFCEKIAAGGMNVVMVSRREEKLNVLAGEIRETYGVETKVVRADFSQPGAAETVFAATEGLDMGFMSYVACLHSFGKIQDTPWEKHEAMINVNVVTFLKCFHHYMRIFAAQDRGAVINVSSMTGISSSPWNGQYGAGKAFILKMTEAVACECEGTGVDVEVITLGTTLTPSLLSNLPGGPQGEAVMKIALTPEECVDEAFEKLGKELSVIAGQRNKDSVHDWKANHTEDEYIRYMGSFYRDLEHHHHHH
modifications: His tag; 7-beta-HSDH G39S Mutant
Molecule B3 showed a Volumetric activity in data set [4] (text of example 3, position 39) of 735 U/ml. In data set [4] (text of example 3, position 39, per mg protein), this molecule came in with a specific enzymatic activity of 52.9 U/mg. The Cofactor specificity result in data set [5] is given as “NADPH”.

B4: Collinsella aerofaciens 7β-HSDH dual mutant [G39S/R64E], with His tag, SEQ ID NO:6 (Collinsella aerofaciens ATCC 25986; G39S/R64E) (protein)
chain: MNLREKYGEWGLILGATEGVGKAFCEKIAAGGMNVVMVSRREEKLNVLAGEIRETYGVETKVVEADFSQPGAAETVFAATEGLDMGFMSYVACLHSFGKIQDTPWEKHEAMINVNVVTFLKCFHHYMRIFAAQDRGAVINVSSMTGISSSPWNGQYGAGKAFILKMTEAVACECEGTGVDVEVITLGTTLTPSLLSNLPGGPQGEAVMKIALTPEECVDEAFEKLGKELSVIAGQRNKDSVHDWKANHTEDEYIRYMGSFYRDLEHHHHHH
Take B4: in data set [2], the Michaelis-Menten constant (Km) came out at 349.3 ± 5.23 µM and the Vmax came to 54.3 µmol/min/mg. In data set [3], the Km worked out at 76.6 ± 15.9 µM and the Vmax worked out at 75.5 µmol/min/mg.

B5: Collinsella aerofaciens 7β-HSDH (WT), with C-terminal His tag, SEQ ID NO:3 (Collinsella aerofaciens ATCC 25986) (protein)
chain: MNLREKYGEWGLILGATEGVGKAFCEKIAAGGMNVVMVGRREEKLNVLAGEIRETYGVETKVVRADFSQPGAAETVFAATEGLDMGFMSYVACLHSFGKIQDTPWEKHEAMINVNVVTFLKCFHHYMRIFAAQDRGAVINVSSMTGISSSPWNGQYGAGKAFILKMTEAVACECEGTGVDVEVITLGTTLTPSLLSNLPGGPQGEAVMKIALTPEECVDEAFEKLGKELSVIAGQRNKDSVHDWKANHTEDEYIRYMGSFYRDLEHHHHHH
For the molecule B5, in data set [6], the Km turned out to be 20.5 ± 2.9 µM and the Vmax was found to be 8.7 µmol/min/mg. Further, in data set [7], the Km worked out at 15.2 ± 2.2 µM and the Vmax amounted to 8.8 µmol/min/mg.

B6: 7β-HSDH [G39S/R64E]: 7β-HSDH dual mutant, positions 39 ([G39S]) and 64 ([R64E]) modified at the same time; His tag, SEQ ID NO:6 (protein)
chain: MNLREKYGEWGLILGATEGVGKAFCEKIAAGGMNVVMVSRREEKLNVLAGEIRETYGVETKVVRADFSQPGAAETVFAATEGLDMGFMSYVACLHSFGKIQDTPWEKHEAMINVNVVTFLKCFHHYMRIFAAQDRGAVINVSSMTGISSSPWNGQYGAGKAFILKMTEAVACECEGTGVDVEVITLGTTLTPSLLSNLPGGPQGEAVMKIALTPEECVDEAFEKLGKELSVIAGQRNKDSVHDWKANHTEDEYIRYMGSFYRDLEHHHHHH
modifications: His tag; 7-beta-HSDH G39S/R64E Mutant
On to B6, for which, in data set [4] (setting [8]), the Specific activity was determined as 57.5 U/mg and the Volumetric activity was 1115.0 U/ml. Also, in data set [5], the Cofactor specificity result is “NADPH”.

B7: 7β-HSDH [R64E]: 7β-HSDH mutant, arginine (R) in position 64 replaced by glutamic acid (E); His tag, SEQ ID NO:4 (protein)
chain: MNLREKYGEWGLILGATEGVGKAFCEKIAAGGMNVVMVGRREEKLNVLAGEIRETYGVETKVVEADFSQPGAAETVFAATEGLDMGFMSYVACLHSFGKIQDTPWEKHEAMINVNVVTFLKCFHHYMRIFAAQDRGAVINVSSMTGISSSPWNGQYGAGKAFILKMTEAVACECEGTGVDVEVITLGTTLTPSLLSNLPGGPQGEAVMKIALTPEECVDEAFEKLGKELSVIAGQRNKDSVHDWKANHTEDEYIRYMGSFYRDLEHHHHHH
modifications: His tag; 7-beta-HSDH R64E Mutant
In data set [4] (setting [9]), B7 showed a Specific activity of 60.2 U/mg and a Volumetric activity of 892.7 U/ml. In data set [4] (qualitative statement), the “activity compared with the wild-type enzyme” value was “increase in the specific activity”. Also, the Cofactor specificity entry in data set [5] is on record as “NADPH”.

B8: 7β-HSDH [R64N]: 7β-HSDH mutant, R in position 64 replaced by N (protein, UniProt A4ECA9 1-263, looked up, variant R64N)
7beta-hydroxysteroid …: MNLREKYGEWGLILGATEGVGKAFCEKIAAGGMNVVMVGRREEKLNVLAGEIRETYGVETKVVNADFSQPGAAETVFAATEGLDMGFMSYVACLHSFGKIQDTPWEKHEAMINVNVVTFLKCFHHYMRIFAAQDRGAVINVSSMTGISSSPWNGQYGAGKAFILKMTEAVACECEGTGVDVEVITLGTTLTPSLLSNLPGGPQGEAVMKIALTPEECVDEAFEKLGKELSVIAGQRNKDSVHDWKANHTEDEYIRYMGSFYRD
With B8, in data set [4] (setting [9]), the Specific activity amounted to 0.6 U/mg and the Volumetric activity turned out to be 3.4 U/ml.

B9: 7β-HSDH [T17F]: 7β-HSDH mutant, threonine at position 17 replaced by F (protein, UniProt A4ECA9 1-263, looked up, variant T17F)
7beta-hydroxysteroid …: MNLREKYGEWGLILGAFEGVGKAFCEKIAAGGMNVVMVGRREEKLNVLAGEIRETYGVETKVVRADFSQPGAAETVFAATEGLDMGFMSYVACLHSFGKIQDTPWEKHEAMINVNVVTFLKCFHHYMRIFAAQDRGAVINVSSMTGISSSPWNGQYGAGKAFILKMTEAVACECEGTGVDVEVITLGTTLTPSLLSNLPGGPQGEAVMKIALTPEECVDEAFEKLGKELSVIAGQRNKDSVHDWKANHTEDEYIRYMGSFYRD
Take B9: in data set [4] (setting [10]), the Specific activity is listed as 46.1 U/mg and the Volumetric activity was 645.2 U/ml. In addition, in data set [5], the Cofactor specificity result is “NADPH/low”.

B10: 7β-HSDH [T17S]: 7β-HSDH mutant, threonine at position 17 replaced by S (protein, UniProt A4ECA9 1-263, looked up, variant T17S)
7beta-hydroxysteroid …: MNLREKYGEWGLILGASEGVGKAFCEKIAAGGMNVVMVGRREEKLNVLAGEIRETYGVETKVVRADFSQPGAAETVFAATEGLDMGFMSYVACLHSFGKIQDTPWEKHEAMINVNVVTFLKCFHHYMRIFAAQDRGAVINVSSMTGISSSPWNGQYGAGKAFILKMTEAVACECEGTGVDVEVITLGTTLTPSLLSNLPGGPQGEAVMKIALTPEECVDEAFEKLGKELSVIAGQRNKDSVHDWKANHTEDEYIRYMGSFYRD
In the case of B10, in data set [4] (setting [10]), the Specific activity came to 17.2 U/mg and the Volumetric activity is listed as 580 U/ml.
